Laboratory results published in the domain aggregation screens of Martell et al. (2025).

experiment: soluble fraction after stress (log2 fold change); higher = more stays soluble; pooled small domains, quantitative proteomics; conditions: stress: 50 degC
How it was run: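 After stress at 50°C, the amount of each protein still soluble was measured. This was done on pooled custom libraries of small protein domains, using high-throughput quantitative proteomics. The figure given is a base-two log fold change and stands for aggregation propensity, with higher values meaning more protein stays in solution.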

| Sequence | soluble fraction (log2) |
| --- | --- |
| HMKRITKKELKQAIVDVFADKPGQSFNYKQLATIIGIKDDPTRRMITDILYELVQEERIVELYRGKFKMEM | -0.66 |
| HMHQKYIITGTRDTYVVSQGETLRTIAEHVYGSRGYARYIIEHNHITHPDDIPVGLTIRLPELELNPDYR | -0.525 |
| HMDLDYSGIMNVLNQKYHITFYNNKKIQNLMPKLMIIMGYNSIINEIGHSKSLKALINSFEEKLKSYILT | -3.02 |
| HMTDYKTNLQEFLQQDGEVEIEYKLLAEVGPSHARQFEVDVMMGDRVLGSGVGRNKKAAEQAAAKVALSKL | -0.124 |
| HMGTHPGIDSGIISDILALKKELPTRSAAKIITMLTLAGKMEENSIHVKTVNRILYQYGYTRDTLS | -1.88 |
| HMAMDITLPLAEVRRQSLEQIERQYLNELMSKHLGRINRAAEAAGITTRQLHKLLTKYSIRKEDFK | -0.673 |
| HMIQAGDLVFIWNPKKGDNFLIKVTPGMSQGTHFGQIKHTELMEREYGEGIVTPKGEVYYLLRPTLAGYTR | -0.973 |
| HMITLYDLLGVSKTASSQEIKTAFKKKALQYHPDKNDGNPDKEEIFKRINMAYQVLGQPQSRANYDFSITP | -0.321 |
| HMRVVGRNHYDDADLAHIRSVIQLEARPLNVSRIARTLANEYPKHTYWSYLSFLQKNLRDRPDLF | -1.83 |
| HMKEFIPPVLDDVLKFFSGSLLPDWENQGRLFFSHYNSQGWRKGTGVQVTDWDSLANKWILDEKIKRDARS | -0.263 |
| HMNFNYPVIVKNSRINVSGVLSAAKLYTINGQLLQSYKGSGEFTSKTLTKGIYILQVDNARTKVLV | -1.29 |
| HMSTEEYDRGYEQGLEEAAKADDAWVANLIKIYSQNTPESMPETMKGRLDAFLYEQQRRAQSVPEM | 0.307 |
| HMEVHLMPGTVLLREYESNEYRVTVTPEGFYDLNGKVFKSLSAVARHITGVNWSGPRFFGVEP | -2.08 |
| HMPRFDINFKVGEVVTIKGGSFDGQQGEISEIDHEHGKIKVMLEVLGRLTPVEVEHTEIEKI | 0.176 |
| HMQPKKLNMYYDYVRQLLESHPYLSAAQIEDRLKEEFTELPMVHSKTVFNFVENIRLQHGINKHA | -0.152 |
| HMGQMGHAVVAKTDLAVGTPLTRDLVAVREVPVEWLHSSAITPEQFERAAGAVLAQPARGGEPLVWSQLEE | 0.0906 |
| HMNSHLEEGRHGLQIGDPGIVRARIESDPEGETDMPVVVIDGRNISWNEFGRMVATYTGFQFKLEM | -0.515 |
| HMINFKVKNVQDVGSRLDKFLVTNIPEFSRSKIQKHIKNGKVMVNGLLKKTGYKLEINDEINILNN | -0.276 |
| HMEHTPYLTEREADVVRLLVSGLDTAQIAQRLGIKTATVTAHKKHIFLKIGVRNTTQLVAWALIR | -2.34 |
| HMQSRRTPASLVERVRQLNGQYQDKEIAELLNREGIKTAHGNEFNAKRIEMIRRHNGISKHSAQ | 0.174 |
| HMASQVERGAVVVTDQRIFFIGVSSEGIEVHGTKIFGMSEKAPLYSHMKGLKKGDSFQFNGLKYVIQDIY | -3.39 |
| HMKFNRPMSEILQEWENKLGTTSDAELAGLIGVVTMTINRWRKNETKPDLSALNRYDRIVNLVVNNIKQL | -0.432 |
| HMSNYYNILGVNKSSTQDEIKKAFRKKAVEHHPDKGGNEATFKKINEAYNTLSDNNKRHMYDMQQSG | 0.213 |
| HMRTIVSELNDIKGISDASAKKLLIRYGSFEAVREAVMKHEEEFELDMGKRITGALTRYFYEE | -1.61 |
| HMVQAQGARIREARVQRGLSQAQLGEPRYSGSYISHIENGRRSPGTDVLAFIAARLGLEPGALDS | -0.504 |
| HMLGERIRRLRKEMGMSVTELARRVKTSPSYISEIEKGEKTPSLNLLVRIASELRTGIDYLTGL | -0.294 |
| HMGDSEMPVSEVVRLAKLDQISSIEISGTKLTIITNNLETYTSRIEENSTIIEILQRAGVDIGGLEIYPHG | -0.492 |
| HMVTPPMVVVDVQGEVKTPGVYHLPTNSRVNDAIKAAGGPKQSADLSYINQARMVKDGEQIYVEKKL | 0.12 |

| Sequence | soluble fraction (log2) |
| --- | --- |
| HMGVLDFSAQLLKHLEMNGGQTPLGDKSPAEEIYAVFGVSKKVFKKAVGDLYRKRLIEISSNGIRMTS | -0.968 |
| HMTPQGALDYSRNAKYLRDQVTAINYLKQARLSLNTTDANYRQTLEQINQAIAKHNQALQQAGVQSQQLAT | 0.0556 |
| HMRDLLPHFQRELQFLQTHRNEFAAAYPELGGRLATASDLLDDPHVERMVQSFALLAARVHKRLDDDF | 0.206 |
| HMGLQEADKQDRIARMKELISFLNEAAKAYYQEGREIVSNLEYDKAYDALLSLEKESGVVLSGSPSQNVG | 0.147 |
| HMSEEAMVSNFRQQEILELARKDGKVTVDGLAELYDVTVQTIRRDLSDLADSGRLKRVHGGAVVPS | 0.262 |
| HMVEKNALSEEIEGYVNKYGKDRSSLMPVLQAIQRKHSYINDFAQQEVARLLDIHPVEVFSVISFYSFLH | -1.79 |
| HMDGTEVTTEPPGAQVEYEGKQFGPTPARIPGLVAGKSLHITLPGYLEVKPKIKAVPKDGEPLSFTLTAI | 0.0823 |
| HMGNKDIEILFSEIVEMRNRIIHGFRITSKQGEQILATKTRKKDGNIQFEITKEYLLDFIKKNEELSDMLY | -2.23 |
| HMGETYTIPDVRGYTLEDAMELPEIKENGFTIIEGRQIVDADVPVGQIISQTPEAESIAKSNVKEITVNIS | 0.0323 |
| HMTKLLITNYERNVLINSYLLKNTPELDDIRRLLVHNKHISENDVSTEMARRIKKHKADWLRVT | -2.71 |
| HMAGVSVTSLTTFWRLAADTPDTPSGADDPSGWSRTEPSIPDGYEGKLYRTIRTIMSDGTATWTSPD | -0.357 |
| HMYEDNERSLVPIVQNFLKEKKILLSNQSINLIVQRSGGDRINLYNELQKIESFSKNQKKIDIGDIIKLTN | -0.286 |
| HMNFSKEYILVHSYKEIDILDALIVKYEATLVNREFDLFINSYIKINEDYAKLFRDEIISKTSGSMSIKEL | -0.825 |
| HMKLTESQLHKFTNDAVLAHIRNLIEFKGAFTEDDIEPIIRDRAAVYGIDLEDEDYKKVKTDVEYHFK | -0.000214 |
| HMTQSPLHWSHRPIDLSELLTYLDRDGAFVYASGHKAPFTEVVRGFEHLLNIRLGDPRDVKRSVLQR | -0.369 |
| HMPIGENIKRLRIMHGLSQKELAQIAGVSDKAVSTWENGTKEPRMGAVQKITGYFGLKKSNLIEDNGL | -0.0331 |
| HMGKEYERALQQVTKSEIDSDEKLQQQMDALVNSPRISDKEDAWALLLVKKLRNEGVEWDELPDVLSERVQ | 0.0796 |
| HMSVDIIPGKADQKVRLIHDPAIVGVTTGGVKTAGPHTLIQIELGPNERPYKRLSLLELIPEG | -0.115 |
| HMQKRDQKKRANMLDSLKVGTRIVTIGGIFGEIAKIKDDRIRIKVAEDVEIWIRRAAVGTVIT | -0.207 |
| HMGDFNYVMPDFRGLEAHDVSSFLNRNGFLLRPTEHEVSFTQRPGLILMHYPEPGYPFSRSSPITLVVS | -1.03 |
| HMLHEFSGVVVSILADTGPSTLKQLHRSLISSDVKMDEKELMQILDEALSSGSVTSHRKGRYLYYSANK | -0.58 |
| HMLKASEVLPYVFTDKFFIDDLNLKQDQILGFLEYIDSKLPSQKLLQVSQQFQLIDFLINESKNYKNQ | -0.382 |
| HMQKPWFYESSGQRKGGFSEQEMVGLITDGEITHGAIVWRNGLSDWTKLEQTELAAHLDKTA | -0.249 |
| HMDPAFAQHHDRALSILHSRGYEVHDSDTDLHWARPVLEFEAYKGSLEYKIVMSYPDLNIIEERVD | -1.06 |
| HMNMFGIQRRNHLLSLLQEKKSITVQEAAVIFEVAEETIRRDFRTMEGQGLIVRTHGGALLADD | -2.19 |
| HMEVTLEEKLSYVEEYAKVHSHFSFRDLLKKQASKTQIVVTFLAILELMKTGKIQITQEHIFDDIVITAK | -0.0755 |
| HMLNWINSDVLERFNSLTKEKQKAIVADTETRLNGLSQARFKVAKSSSNERLIAEFAIEINEAIMRAAAL | -1.49 |
